# Measurements taken from paper doi:10.1101/2020.01.24.918722, “Calsyntenin-3 directly interacts with neurexins to orchestrate excitatory synapse development in the hippocampus” (bioRxiv, 2020).
# T1: His-HA-Clstn3 Ecto (extracellular domain of mouse Clstn3) (mouse, UniProt Q99JH7 21-846)
# T1 construct: extracellular domain of mouse calsyntenin-3, aa 21-846; also called His-HA-Clstn3 Full (methods); source: purified recombinant protein (pCAGGS vector); not shown: His6, N-terminal, kept; HA, N-terminal, kept
# T1 sequence (looked up): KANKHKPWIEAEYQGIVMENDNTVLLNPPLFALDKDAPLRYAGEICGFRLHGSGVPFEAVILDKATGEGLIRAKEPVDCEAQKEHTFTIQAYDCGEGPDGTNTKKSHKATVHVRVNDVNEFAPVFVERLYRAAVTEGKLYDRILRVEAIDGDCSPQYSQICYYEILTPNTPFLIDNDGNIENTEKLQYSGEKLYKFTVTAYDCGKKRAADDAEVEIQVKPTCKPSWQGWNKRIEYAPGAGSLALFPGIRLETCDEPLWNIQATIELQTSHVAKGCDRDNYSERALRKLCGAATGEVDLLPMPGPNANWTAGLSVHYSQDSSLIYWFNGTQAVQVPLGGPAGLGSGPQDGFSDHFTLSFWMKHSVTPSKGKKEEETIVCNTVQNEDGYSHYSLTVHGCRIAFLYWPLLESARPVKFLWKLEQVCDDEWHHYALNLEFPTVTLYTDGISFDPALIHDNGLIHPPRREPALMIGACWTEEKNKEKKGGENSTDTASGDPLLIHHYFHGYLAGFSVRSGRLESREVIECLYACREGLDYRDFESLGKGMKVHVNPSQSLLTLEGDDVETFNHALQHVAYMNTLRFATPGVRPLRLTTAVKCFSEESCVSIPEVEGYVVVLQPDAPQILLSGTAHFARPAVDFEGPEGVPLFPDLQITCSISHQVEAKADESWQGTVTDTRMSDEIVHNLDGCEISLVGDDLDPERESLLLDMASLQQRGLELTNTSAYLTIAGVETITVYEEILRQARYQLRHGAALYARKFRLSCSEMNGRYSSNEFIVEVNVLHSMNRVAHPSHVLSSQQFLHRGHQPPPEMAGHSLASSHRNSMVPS
# B1: Ig-mNrxn1β^+SS4 (Fc fusion)
# chain: not shown
# notes: signal peptide in the construct; extracellular region of mouse neurexin-1β with the SS4 insert, aa 1-389; also called Ig-Nrxn1β^+SS4; pCMV-IgC-mNrxn1β^+SS4; source: HEK293T, purified (protein A-Sepharose)
# B2: His-HA-Clstn3 Cad (extracellular, cadherin domains) (domain or fragment, mouse, UniProt Q99JH7 21-269, looked up)
# chain: KANKHKPWIEAEYQGIVMENDNTVLLNPPLFALDKDAPLRYAGEICGFRLHGSGVPFEAVILDKATGEGLIRAKEPVDCEAQKEHTFTIQAYDCGEGPDGTNTKKSHKATVHVRVNDVNEFAPVFVERLYRAAVTEGKLYDRILRVEAIDGDCSPQYSQICYYEILTPNTPFLIDNDGNIENTEKLQYSGEKLYKFTVTAYDCGKKRAADDAEVEIQVKPTCKPSWQGWNKRIEYAPGAGSLALFPGIR
# notes: mouse calsyntenin-3, aa 21-269 (cadherin domains); source: purified recombinant protein (pCAGGS vector); not shown: His6, N-terminal, kept; HA, N-terminal, kept
# Assays:
# [1] = target: T1, His-HA-Clstn3 Ecto (extracellular …); assay: pull-down; direct protein-interaction assay: 10 μg purified Ig-Nrxn1 with 4 μg purified His-HA-Clstn3, 2 h at 4°C, 25 mM Tris pH 7.5, 30 mM MgCl2, 40 mM NaCl, 0.5% Triton X-100; precipitated with Talon resin, blot with anti-human IgG; conditions: both partners purified
# Ig-mNrxn1β^+SS4 = target: B1; assay: as above; conditions: both partners purified
# Ig-mNrxn1β^+SS4, sequence (P0DI97 47-389): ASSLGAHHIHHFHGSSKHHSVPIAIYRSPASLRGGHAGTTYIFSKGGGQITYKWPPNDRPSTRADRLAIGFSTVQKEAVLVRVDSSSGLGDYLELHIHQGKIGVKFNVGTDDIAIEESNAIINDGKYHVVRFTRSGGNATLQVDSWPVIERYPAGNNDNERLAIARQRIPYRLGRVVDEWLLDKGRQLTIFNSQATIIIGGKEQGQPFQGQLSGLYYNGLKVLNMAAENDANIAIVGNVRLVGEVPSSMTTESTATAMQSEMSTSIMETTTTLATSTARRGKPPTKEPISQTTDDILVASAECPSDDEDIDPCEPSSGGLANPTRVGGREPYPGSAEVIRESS
binding result [1],binding result (Ig-mNrxn1β^+SS4),Binder
binds,,B1
,binds,B2
